Measurements reported in patent US20260258115A1 (MAPP BIOPHARMACEUTICAL, published 2026).

B1: ADI-41595 (antibody, V domains shown)
VH: QVQLVQSGGGVVQPGGSLRLSCAASGFTFSDYGMHWVRQAPGKGLEWVAVISDGGSNQYSADSVRGRFTISRDNSKNTLYLQMNSLRPEDTAVYYCAKARIAARAIFDYWGQGTLVTVSS
VL: DIQLTQSPSSLSASVGERITITCQASRDVRIYLNWYQHKPGKAPKLLIYDASNLETGVPSRYSGSGSGTDFTFTISSLQPEDIATYFCQQYDLLPPTFGVGTKVEIK
B2: ADI-41597 (antibody, V domains shown)
VH: QVQLQESGPGLVKPSETLSLTCTVSGASVSSNNYYWSWIRQPPGKGLEWIGYIYYSGSTNYNASLKSRVTISVDTSKNQFSLKLSSVTAADTALYYCAGEHIFGVASPFEAPFDYWGQGTMVTVSS
VL: SSELSQPPSVSVAPGKTARITCGGNNIGIKSVHWYQQKPGQAPVLVIYSDSDRPSGIPERFSGSNSGNTATLTITRVEAGDEADYYCQVWDSSSDHFVFGIGTKVTVL
B3: ADI-41598 (antibody, V domains shown)
VH: EVQLVESGPGLVKPSETLSLTCTVSGGSITPYYWSWIRQPPGKGLEWIGNISYSGSTTYNPSLKSRVTISVDRSKDQFSLRLRSVTAADTAVYYCARVVTLVLGVSLNDAFDIWGQGTMVTVSS
VL: DIQMTQSPSSLSASVGDRVTITCRASQSISRYLNWYQHKPGKAPILLIYAATTLESGVPPRFSGSGSGTDFSLTISSLQPEDFATYYCQQSYSVPLTFGGGTKLEIK
B4: ADI-41599 (antibody, V domains shown)
VH: EVQLLESGGGLVQPGGSLRLSCAASGFIFSNYEMNWVRQAPGKGLEWISHITPTGNSIYYADSVKGRFTISRDNAKNAQYLQMHSLRPDDTAIYYCARGEDPIAATGGFDSWGQGTLVTVSS
VL: EIVLTQSPSSLSASVGDRVTIPRRSSQNVDKFLHWYQQRPGKAPKLLIYAAFSLQSGVPSRFSGSGSGTDFTLTISSLQPEDFATYYCQQSYSTPFTFGQGTKVEIK
B5: ADI-41235 (antibody, V domains shown)
VH: QVQLQQWGAGLLKPSETLSLTCGVYGESFSGHYWSWIRQPPGKGLEWMGEIHHSGTTNYNPSLKSRVTISVDTSKNQFSLKLNSVTAADTAVYYCARNPAEDILTGYSPPFHYYYMDVWGKGTTVTVSS
VL: QSVLTQPPSVSGAPGQRVTISCTGSSSNIGAGYDVHWYQQIPGTAPKLLIHSNNNRPSGVPDRFSGSKSGTSASLAITGLQAEDEADYYCQSYDSSLSVVFGGGTKLTVL
B6: ADI-41236 (antibody, V domains shown)
VH: QVQLVQSGGGLVKPGGSLRLSCTASGFTFSDYYMDWIRQAPGKGLEWVSSISSSSTYTKYADSVKGRFTISRDNAKNSLFLQMNSLRAEDTAVYYCVRNLGPYCSSTSCFVFDYWGQGTLVTVSS
VL: QSVLTQPPSVSGAPGQRVSISCTGSSSNIGAGYEVHWYKQVPGTAPRLLMYDNTNRPSGVPDRVSGSKSGTSASLAITGLQAEDEADYYCQSYDNSLNKSVFGGGTKVTVL
B7: ADI-41237 (antibody, V domains shown)
VH: EVQLVESGGGLVKPGGSLRLSCAASGFTFSDYYMNWIRQAPGKGLEWVSDISPSSSYTNYADSVKGRFTISRDNAKNSLYLQMNSLRAEDTAMYYCARRGSCTGGVCSFDYWGQGTLVTVSS
VL: QPGLTQPPSVSGAPGQRVTISCTGSSSNIGAGYDVNWYQQLPGTAPKLLIYDNSNRPSGVPDRFSGSKSGTSASLAITGLQAEDEADFYCQSYDSSLSGFVFGTGTKVTVL
B8: ADI-41238 (antibody, V domains shown)
VH: EVQLLESGGGLVKPGGSLRLSCAASGFTFRDYYMSWIRQAPGKGLEWVSYISSSSSYTEYADSVKGRFTISRDNAKKSLYLQMNSLRTEDTAVYYCARVITQAGTGTTYYMDVWGKGTTVTVSS
VL: QSVLTQPPSVSGAPGQRVTISCTGSSSNIGTGYDVHWYQQLPGTAPKLLIYANNNRPSGVPDRFSGSKSGTSASLAITGLQAEDEADYYCQSYDSSLSLVFGGGTKLTVL
B9: ADI-41239 (antibody, V domains shown)
VH: QITLKESGPTLVKPTQTLTLTCTFSGFSLTTTGVGVGWIRQPPGKALEWLALIYWDDDKRYSPSLKNRITITKDTSKKQVVLTMTNMDPADTATYYCAHISTVVTYDSSGSYYVLINWFDPWGQGTLVTVSS
VL: not shown
B10: ADI-41240 (antibody, V domains shown)
VH: QVQLQQWGAGLLKPSETLSLICDVYGGSFSDYYWSWIRQSPGKGLEWIGEINHSGSTSFHPSLKSRISISIDTSNNQFSLNLSSMTAADTAVYYCARGTLRGYFDYWGQGTLVTVSS
VL: EIVLTQSPSTLSAFVGDRVTITCRASQSISRWLAWYQQKPGKAPNLLISEASSLESGVPSRFSGSGSGTEFTLTISSLQPDDLGTYYCQQYNGYLWTFGQGTKVEIK
B11: ADI-41241 (antibody, V domains shown)
VH: QVQLVQSGAEVKKPGASVQVSCKASGYTFTGDYMHWVRQAPGQGLEWMGRINPNSGGTNYAQKFQGRVTMTRDTSISTAYMELSRLRSDDTAVYYCARAAAEYSSSSPTSYYYMDVWGKGTTVTVSS
VL: EIQMTQSPSSLSASVGDRVTITCRASQNIYSFLNWYQQKPGKAPKLLIYAASSLQSGVPSRFSGSGSATDFTLTISSLQPEDFATYYCQQSYSPPQITFGQGTKVDIK
B12: ADI-41242 (antibody, V domains shown)
VH: EVQLVESGGGVVQPGRSLRLSCAASGFPFSSYAMHWVRQAPGKGLEWVAVIWFEGNEKYFADSVEGRFTISRDNSKNTLYLQMNSLRAEDTARYYCARFYFGAFDIWGQGTLVTVSS
VL: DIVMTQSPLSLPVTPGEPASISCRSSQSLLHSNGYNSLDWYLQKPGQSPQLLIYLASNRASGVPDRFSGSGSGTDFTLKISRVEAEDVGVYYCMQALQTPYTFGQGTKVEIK
B13: ADI-41243 (antibody, V domains shown)
VH: QVQLVQSRAEVKKPGESLKISCKGSLHSFSNNWIGWVRQMPGKGLEWMGIIFPDDSDTRYSPSFQGQVTISADKSISTAYLQWSSLKASDTAIYYCGTVVTLIQGVADWGQGTLVTVSS
VL: QPVLTQPHSVSESPGKTVTISCTRSSGSIDSSYVQWYQQRPGSSPTTVIYEDNLRPSGVPDRFSGSIDSSSNSASLTISGLKTEDEAEYYCQSYDSSNPVVFGGGTKLTVL
B14: ADI-41244 (antibody, V domains shown)
VH: QVTLKESGGGLIQPGGSLRLSCAVSGFTVSSKYMSWVRQAPGKGLEWVSVIYGGGSTYYTDSVKGRFTISRDNSNNTLYLQMNSLRAEDTAIYYCAREARSYNYDYVGNDAFDIWGQGTTVTVSS
VL: DIVLTQTPDSLAVSLGERATINCKSSQSVLNNFNNKNYLAWYQQKPGQPPKLLIYWASTRESGVPDRFSGSGSGTDFTLTITSLQAEDVAIYYCQQYYRTPPYTFGQGTKVDIK
B15: ADI-41245 (antibody, V domains shown)
VH: QVQLVESGGGLVKPGGSLRLSCAASGFSFSAYYMSWIRQAPGKGLEWISNISGGSSYANYADSVEGRFTISRDNAKNSLYLQMNSLRAEDTAVYYCAREFQTYYYMDVWGKGTTVTVSS
VL: QPVLTQPPSVSGAPGQRVTISCTGSSSNIGAGYEVHWYQQLPGTAPKLLIYGNNNRPSGVPDRFSGSKSGTSASLAITGLQAEDEADYYCQSYDSSLSGSVFGGGTKLTVL
B16: ADI-41246 (antibody, V domains shown)
VH: EVQLLESGPGLVKPSETLSLTCIVSGGSISSYNWNWIRQPPGKGLEWIGYIYNSGSTNYNPSLKSRVTISVDTSKNQFSLKLSSVTAADTAVYYCARYFDYGSGGFDYWGQGTLVTVSS
VL: ETTLTQSPGTLSLSPGERATLSCRASQSVTSTYLAWYQQKPGQAPRLLIYGASSRATGIPDRFSGSGSGTDFTLTISRLEPEDFAVYYCQQFDSSLTFGGGTKVEIK
B17: ADI-41247 (antibody, V domains shown)
VH: QVQLVQSGAEVKKPGASLQVSCKASGYTFTDSYFHWVRQAPGQGLEWMGRISPHSGGTNYAQKFQGRVTMTRDTSISTAYLELSRLRSDDTAVYYCATEGPRGPFRFDPWGQGTLVTVSS
VL: NFMLTQPHSVSESPGKTVTISCTRSSGSIASNYVQWYQQRPGSSPTTVIYEDNQRPSGVPDRFSGSIDSSSNSASLTISGLMTEDEADYYCQSYDSSNWVFGGGTKLTVL
B18: ADI-41248 (antibody, V domains shown)
VH: QVQLVQSGGGVVQPGRSLRLSCAASGFTFSSYSMHWVRQAPGKGLEWMAVCWYDGSNIYYADSVKGRFTISRDNSKNTVYLQMNSLRAEDTAVYYCARDDRYCSGGTCLSAFDIWGQGTMVTVSS
VL: ETTLTQSPSSLSASVGDRVTITCRASQSISSYLNWYQQKPGRAPKLLIYTTSSLQSGVSSRFSGSGSGTDFTLTINSLQPEDFATYYCQQSYSTPNTFGQGTKVEIK
B19: ADI-41249 (antibody, V domains shown)
VH: QVQLVQSGAEVKKPGESLKISCQVSRDTSTTYWIGWVRQMPGKGLEWMGIIFPGDSDTRYSPSFQGQVTISADKSIMTAYLQLTSLKASDTAMYYCATQALRGAFDIWGQGTMVTVSS
VL: DIRLTQSPSSLSASVGDRVTITCQASQDISNYLNWYQQKPGKAPKLLIYDASYLETGVPSRFSGSGSGTDFTFTISSLQPEDFATYYCQQYDDLLFTFGPGTKLEIK
B20: ADI-41250 (antibody, V domains shown)
VH: QVQLQQWGAGLLKPSETLSLTCAVSGESLTGYFWSWIRQPPGKGLEWIGEVSHSGSTNYNPSLKSRVTMSVDTSKTQFSLKLNSVTAADTAVYYCARGYDYWSGTARYFDYWGQGILVTVSS
VL: QPVLTQPASVSGSPGQSITISCTGTSSDVGGYNYVSWYQQHPGKAPKLMIYDVSNRPSGVSSRFSGSKSGNTASLTISGLQAEDEGDYYCSSYRSSTTSRVFGGGTKVTVL
B21: ADI-41251 (antibody, V domains shown)
VH: EVQLVESGGGLVKPGGSLRLSCAASGFTFSDYYMTWIRQAPGKGLEWVSNISGGSSYTNYADSVKGRFTISRDNAKNSVYLQMNSLRAEDTAVYYCARVGCSGGVCNFFLDYWGQGTLVTVSS
VL: QSVLTQPPSVSGAPGQRVTISCTGSSSNIGAGYDVHWYQQLPGTAPKLLIYDNTNRPSGVPDRFSGSKSGTSASLAITGLQAEDEADYYCQSYDSSLSGYVFGTGTKVTVL
B22: ADI-41252 (antibody, V domains shown)
VH: EVQLVQSGAEVKKPGESLKISCMGSGYNFPNYWIGWVRQMSGKGLEWMGIIYPDDSDTTYSPSFQGQVIFSADKSISTAYLQWSSLKASDTAMYFCVRLDKTTQIDFWGQGTLVTVSS
VL: EIVLTQSPSSLSASVGDRVTITCQASQDISNYLNWYQQKPGKAPKLLIYDVSNLETGVPSRFSGSGSGTDFTFTISSLQPEDIATYYCQQHDNLPLTFGQGTRLEIK

biological target: RSV F on RSV-A2 virus (Respiratory syncytial virus, RSV-A2, UniProt P03420 26-574); experiment: cell-based or functional assay

**Q.** B1 was tested. Which “Neutralization IC50 (RSV subtype A)” value did it give?
**A.** 0.0475 µg/mL

**Q.** Which “Neutralization IC50 (RSV subtype A)” value does the source give for B2 here?
**A.** 0.173 µg/mL

**Q.** Which “Neutralization IC50 (RSV subtype A)” value does the source give for B3 here?
**A.** 0.174 µg/mL

**Q.** How did the “Neutralization IC50 (RSV subtype A)” value turn out when B4 was run?
**A.** 0.637 µg/mL

biological target: RSV F on RSV-A2 virus (Respiratory syncytial virus (RSV-A2)); experiment: cell-based or functional assay

**Q.** Which “Neutralization IC50 (RSV subtype A)” value does the source give for B5 here?
**A.** > 25 µg/mL

**Q.** How did the “Neutralization IC50 (RSV subtype A)” value turn out when B6 was run?
**A.** > 25 µg/mL

**Q.** For B7, which “Neutralization IC50 (RSV subtype A)” value is on record?
**A.** 0.04 µg/mL

**Q.** Which “Neutralization IC50 (RSV subtype A)” value does the source give for B8 here?
**A.** 0.13 µg/mL

**Q.** With B9 as the binder, how does the “Neutralization IC50 (RSV subtype A)” value read?
**A.** > 25 µg/mL

**Q.** With B10 as the binder, how does the “Neutralization IC50 (RSV subtype A)” value read?
**A.** > 25 µg/mL

**Q.** How did the “Neutralization IC50 (RSV subtype A)” value turn out when B11 was run?
**A.** 18.8 µg/mL

**Q.** B12 was tested. Which “Neutralization IC50 (RSV subtype A)” value did it give?
**A.** > 25 µg/mL

**Q.** With B13 as the binder, how does the “Neutralization IC50 (RSV subtype A)” value read?
**A.** > 25 µg/mL

**Q.** Which “Neutralization IC50 (RSV subtype A)” value does the source give for B14 here?
**A.** > 25 µg/mL

**Q.** B15 was tested. Which “Neutralization IC50 (RSV subtype A)” value did it give?
**A.** 0.71 µg/mL

**Q.** Which “Neutralization IC50 (RSV subtype A)” value does the source give for B16 here?
**A.** > 25 µg/mL

**Q.** B17 was tested. Which “Neutralization IC50 (RSV subtype A)” value did it give?
**A.** > 25 µg/mL

**Q.** For B18, which “Neutralization IC50 (RSV subtype A)” value is on record?
**A.** > 25 µg/mL

**Q.** With B19 as the binder, how does the “Neutralization IC50 (RSV subtype A)” value read?
**A.** 0.01 µg/mL

**Q.** How did the “Neutralization IC50 (RSV subtype A)” value turn out when B20 was run?
**A.** > 25 µg/mL

**Q.** For B21, which “Neutralization IC50 (RSV subtype A)” value is on record?
**A.** 0.11 µg/mL

**Q.** Which “Neutralization IC50 (RSV subtype A)” value does the source give for B22 here?
**A.** > 25 µg/mL
